The results in this text go back to PMC5856381.

This test concerns the target recombinant haptoglobin Hp1S, C1r-LP processed (rHp 1–1) (human) (UniProt P00738). The test can be described thus: non-reducing SDS-PAGE; Coomassie-stained gel of non-reduced protein samples; disulfide-linked dimers and multimers.

On to “recombinant haptoglobin Hp1S, C1r-LP processed (rHp 1–1) (from UniProt P00738-2 19-101) (natural protein)”, for which the stoichiometry N stood at 2.

One may read the stoichiometry N as a count of units in the complex or per binding partner.
